Results from publication PMC4415690.

Target: TesS thioesterase (SP1408) of Streptococcus pneumoniae, C-terminal FLAG tag (Streptococcus pneumoniae)
Assay: SEC

stoichiometry N: 2
Substance: TesS thioesterase (SP1408) of Streptococcus pneumoniae, C-terminal FLAG tag (enzyme)
